Measurements: patent publication US9249224B2 (RINAT NEUROSCIENCE CORP., priority 2011, dated 2016)

Legend:
human GHR = biological target: T1, human GHR (Homo sapiens, UniProt P10912); test: Biacore kinetics and affinity, immobilized Fab, human GHR analyte, 37° C.; type: binding; settings: Fab captured on anti-human kappa surface
T1 construct: his-tagged monomers of amino acids 31-235 of the extracellular domain of the human or cyno GHR
T1 sequence (P10912 49-253): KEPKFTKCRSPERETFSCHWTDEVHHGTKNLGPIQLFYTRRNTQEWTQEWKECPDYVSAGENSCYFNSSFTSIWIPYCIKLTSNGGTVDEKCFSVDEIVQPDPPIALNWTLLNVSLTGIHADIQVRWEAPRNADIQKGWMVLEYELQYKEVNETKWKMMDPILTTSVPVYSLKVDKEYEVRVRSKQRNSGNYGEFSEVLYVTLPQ
Experimental: (§1) The affinity of GHR antibody SS1 Fab to human and cyno GHR was measured on a Biacore™ T200 biosensor (GE Lifesciences™, Piscataway N.J.).
(§2) An anti-human kappa sensor chip was prepared by activating all flow cells of a Biacore™ CM4 sensor chip with a 1:1 (v/v) mixture of 400 mM EDC and 100 mM NHS for 7 minutes, at a flow rate of 10 μL/min. An anti-human kappa reagent (goat F(ab′)2 fragment anti-human kappa, Southern Biotech Catalog #2063-01) was diluted to 50 μg/mL in 10 mM sodium acetate pH 4.5 and injected on all flow cells for 7 minutes at 20 μL/min. All flow cells were blocked with 100 mM ethylenediamine in 150 mM borate buffer pH 8.5 for 7 minutes at 10 μL/min.
(§3) The kinetics assay was run using a methodology with varying dissociation times as described in Katsamba et al., supra. Fabs were captured onto downstream flow cells (flow cells 2, 3 and 4) at 2 μg/mL at a flow rate of 10 μL/min for 2 minutes. Different Fabs were captured on each flow cell. Flow cell 1 was used as a reference surface. […] After the analyte injection, dissociation was monitored for 30 minutes (for the 133 nM and 400 nM GHR cycles) or 60 seconds (all other cycles) followed by regeneration with three 30-second injections of 10 mM glycine pH 1.7. A 6-membered dilution series of GHR was analyzed using this method, where the top concentration was 400 nM and the dilution factor was 3-fold. […]

cyno GHR = test: Biacore kinetics and affinity, immobilized Fab, cyno GHR analyte, 37° C.; type: binding, cynomolgus monkey; settings: Fab captured on anti-human kappa surface
Sequence of cyno GHR (as listed by the source): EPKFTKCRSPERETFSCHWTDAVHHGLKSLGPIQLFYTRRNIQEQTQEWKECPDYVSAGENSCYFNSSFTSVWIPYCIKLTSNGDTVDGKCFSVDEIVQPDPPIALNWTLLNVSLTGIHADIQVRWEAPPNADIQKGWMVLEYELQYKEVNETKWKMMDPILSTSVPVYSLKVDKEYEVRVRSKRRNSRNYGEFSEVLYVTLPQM
Experimental: as §1, §2, §3

hGHR-hFc = biological target: T2, hGHR-hFc (Homo sapiens, UniProt P10912); test: Biacore kinetics and affinity, immobilized hGHR-hFc, Fab analyte, 37° C.; type: binding; settings: hGHR-hFc captured on anti-human Fc surface
T2 construct: purchased R&D Systems 1210-GR
T2 sequence (P10912 with tags, fused parts or gaps limits assumed): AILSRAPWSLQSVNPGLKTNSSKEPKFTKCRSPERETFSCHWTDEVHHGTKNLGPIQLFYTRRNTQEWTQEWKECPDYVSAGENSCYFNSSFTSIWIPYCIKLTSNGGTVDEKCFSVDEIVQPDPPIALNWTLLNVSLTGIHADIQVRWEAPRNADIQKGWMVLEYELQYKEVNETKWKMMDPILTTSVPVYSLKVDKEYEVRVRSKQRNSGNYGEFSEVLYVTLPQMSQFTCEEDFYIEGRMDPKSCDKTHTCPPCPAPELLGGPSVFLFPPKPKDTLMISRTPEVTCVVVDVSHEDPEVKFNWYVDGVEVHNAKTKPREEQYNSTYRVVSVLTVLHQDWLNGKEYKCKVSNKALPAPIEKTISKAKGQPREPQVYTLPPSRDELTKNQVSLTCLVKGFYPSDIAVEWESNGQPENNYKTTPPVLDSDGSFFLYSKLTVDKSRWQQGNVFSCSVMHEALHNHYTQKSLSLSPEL
Experimental: as §1
as §2, with “anti-human Fc” for “anti-human kappa”, “fragment to human IgG Fc, Cappel” for “fragment anti-human kappa, Southern Biotech”, “Catalog #55053)” for “Catalog #2063-01)”, “to 60” for “to 50”, “pH 5.0” for “pH 4.5”
The kinetics assay was run using a methodology with varying dissociation times as described in Katsamba et al., supra. The hGHR-hFc fusion protein (R&D Systems™ Catalog#1210-GR) was captured onto downstream flow cells at 2 μg/mL at a flow rate of 10 μL/min for 30 seconds, 1 minute and 2 minutes on flow cells 2, 3 and 4, respectively. Flow cell 1 was used as a reference surface. […] After the analyte injection, dissociation was monitored for 30 minutes (400 nM Fab cycle) or 60 seconds (all other cycles) followed by regeneration with two 30-second injections of 75 mM phosphoric acid. A 5-membered dilution series of Fab was analyzed using this method, where the top concentration was 400 nM and the dilution factor was 3-fold. […]

ka (human GHR): 138000 M⁻¹ s⁻¹
kd (human GHR): 0.000215 s⁻¹
kd (cyno GHR): 0.000576 s⁻¹
ka (hGHR-hFc): 374000 M⁻¹ s⁻¹
kd (hGHR-hFc): 0.000359 s⁻¹
B1: SS1 Fab: Fab of GHR antibody SS1 (antibody, V domains shown)
VH: EVQLVESGGGLVKPGGSLRLSCAASGFTFSDAWMDWVRQAPGKGLEWVAEIRSKANYHATYYAESVKGRFTISRDDSKNTLYLQMNSLKTEDTAVYYCTLIRDYWGQGTLVTVSS
VL: EIVLTQSPGTLSLSPGERATLSCTATSSVSSSYLNWYQQKPGQAPRLLIYSTSNLASGIPDRFSGSGSGTDFTLTISRLEPEDFAVYYCHQYHRSTPTFGGGTKVEIK
ka (cyno GHR): 182000 M⁻¹ s⁻¹
